# Measured values: US20120270768
substance,measurement,setting,value
prostate specific antigen (PSA),Kcat against Mu-HSSKLQ-AMC,Ac-GKSQYQ-AMC,˜10-fold improvement in the Kcat kinetic parameter
same,Kcat/Km,Ac-GKSQYQ-AMC,278 s^-1M^-1
same,Kcat/Km ratio against Mu-HSSKLQ-AMC,Ac-GKSQYQ-AMC,Kcat/Km ratios that were 10-fold higher than the Mu-HSSKLQ-AMC test peptide
same,Km,Ac-GKSQYQ-AMC,343 µM
same,kcat,Ac-GKSQYQ-AMC,0.09 s⁻¹
same,Kcat/Km,Ac-GSSKFQ-AMC,86 s^-1M^-1
same,Km,Ac-GSSKFQ-AMC,666 µM
same,kcat,Ac-GSSKFQ-AMC,0.057 s⁻¹
same,Kcat against Mu-HSSKLQ-AMC,Ac-GSSKYQ-AMC,˜10-fold improvement in the Kcat kinetic parameter
same,Kcat/Km,Ac-GSSKYQ-AMC,227 s^-1M^-1
same,Kcat/Km ratio against Mu-HSSKLQ-AMC,Ac-GSSKYQ-AMC,Kcat/Km ratios that were 10-fold higher than the Mu-HSSKLQ-AMC test peptide
same,Km,Ac-GSSKYQ-AMC,500 µM
same,kcat,Ac-GSSKYQ-AMC,0.113 s⁻¹
same,Kcat against Mu-HSSKLQ-AMC,Ac-GsAKYQ-AMC,˜10-fold improvement in the Kcat kinetic parameter
same,Kcat/Km,Ac-GsAKYQ-AMC,218 s^-1M^-1
same,Kcat/Km ratio against Mu-HSSKLQ-AMC,Ac-GsAKYQ-AMC,Kcat/Km ratios that were 10-fold higher than the Mu-HSSKLQ-AMC test peptide
same,Km,Ac-GsAKYQ-AMC,653 µM
same,kcat,Ac-GsAKYQ-AMC,0.143 s⁻¹
same,Kcat/Km,Mu-HSSKLQ-AMC,23.6 s^-1M^-1
same,Km,Mu-HSSKLQ-AMC,470 µM
same,kcat,Mu-HSSKLQ-AMC,0.011 s⁻¹
same,"PSA hydrolysis (release of L12ADT, LC/MS)",Mu-HSSKLQ//L12ADT,the new prodrug was hydrolyzed dramatically better than the test peptide
same,"PSA hydrolysis (release of L12ADT, LC/MS)",Mu-SSKYQ//L12ADT,the new prodrug was hydrolyzed dramatically better than the test peptide
